Laboratory results reported in patent US8426686B2, “Polyunsaturated fatty acid production in heterologous organisms using PUFA polyketide synthase systems” (DSM IP Assets B.V., priority 2006, dated 2013).

Tests used:
acyl-CoA synthetases = assay: In vitro activity assay of Schizochytrium FAS-KO cell free homogenate with Triacsin C (HIP extraction, normal phase TLC, phosphorimage); assay type: biochemical; settings: FAS-KO sample; Triacsin C 0, 25, 100 or 200 uM for 10 minutes, then ATP and Mg+2, additional 20 minutes; effect at higher concentrations
Method: An example of a protocol for in vitro activity assays of both FAS and PUFA synthase activities is as follows. In a final volume of 100 uL, mix the enzyme preparation and Buffer A (volume of these 2 components=90 uL) plus the following components added as a cocktail (in 10 uL) to yield the final concentrations indicated in parenthesis: malonyl-CoA (50 uM—a mixture of cold and malonyl-2-^14C-CoA such that the final concentration of radiolabel is 0.65 μCi/mL), NADH (1 mM), NADPH (1 mM) and acetyl-CoA (10 uM). These components and additional components can be adjusted depending on the requirements of the particular experiments. The assay reactions are carried out in glass tubes in a room temperature (˜21° C.) water bath. The time of incubation is dependant on the experimental requirements. The reactions are stopped by one of two methods depending on the work-up protocol. For conversion of fatty acids to fatty acid methyl-esters (FAMEs) using an acidic method, the reaction is stopped by adding the FAME reagent (see below). For extraction of lipids without derivatization, the reaction is stopped by addition of 125 uL of isopropanol:acetic acid (4:1 v/v) (see below). […]

yeast = assay: FAME analysis of yeast expressing Schizochytrium PUFA synthase and Het I with co-expressed acyl-CoA synthetase; assay type: cell-based, Saccharomyces cerevisiae; settings: data not shown
Excerpt: More specifically, the yeast expression system described in the Examples above was modified to accommodate introduction of the fifth ACoAS gene (i.e., the yeast also contained OrfsA, B and C of the Schizochytrium PUFA synthase system and a PPTase (Het I from Nostoc)) using 4 vectors. Yeast expression vectors in which two genes can be cloned (the pESC vectors) were obtained from Stratagene. These vectors are similar to and compatible with the pYES vectors described above. […] This provides confirmation that the accumulation of the products of the PUFA synthase in heterologous host can be increased by co-expression of enzymes that may be more efficient at utilization of those products.
In subsequent experiments, ScACS-3, ScACS-5, ScACS-6 and ScACS-8 were also tested in yeast that contained the genes encoding the Schizochytrium PUFA synthase system (e.g., sOrfA, sOrfB and nOrfC, and HetI), using similar methods as described above.

Schizochytrium = assay: DAGAT gene knock out in Schizochytrium strain B73-8, lipid profile; assay type: cell-based; settings: inactivation of the DAGAT gene in Schizochytrium B73-8
Excerpt: Using the knock out technology described above in Example 1 for FAS in Schizochytrium, the inventors similarly knocked out the DAGAT gene (comprising SEQ ID NO:100) in a Schizochytrium strain, denoted B73-8. […] Accordingly, the inventors concluded that this DAGAT is the primary enzyme responsible for TAG synthesis in Schizochytrium.

Molecule	DHA production in yeast as compared to in the absence of the added acyl-CoA synthetase gene (yeast)	also measured
CCC/C=C/C/C=C/C=C/C=N/NN=O [Triacsin C]	–	radiolabel in the FFA band (loss after addition of ATP and Mg+2) (acyl-CoA synthetases): blocked the loss of radiolabel from the FFA band
ScACS-5: Schizochytrium acyl-CoA synthetase, SEQ ID NO:90/91 (protein, listed as Schizochytrium sp.) MLEMREEVVKHEGEAAHFKGVKMKVFPNGFQTMVDIFKVPFEKQVMKNDLLVDETGRMTFQEVFDTAAALGDALVNEYGVEKGDRVVALSKNRNEYIVTMIAATSVGAIFAPLNSYWKTEQLSYGLDDSGAKVVVCDADRYVQLEPLLDGRASALERVLLLRGPGTEKFRPNAKTTAFDEVISKHAGARMPPFPCQKDDPAMIMYTSGTTGNPKGVVLTHRSIGEAMTGAVAAMTYEKTLAATRAGETLPEPEDPSLSAFLLAVPLFHVTGHHCVGLLSIISCRKIVLMSKWDPKLALELIESERITNFTGVPTMALDLMTHPDFKKRDTSTLKSLGGGGAAPPSTMVNDIDKNFKQASPLQAWGMTETNGIATLTEGDMYRRKPESCGKAIPNVEIAIWNARDEPVPAGAEGELVIRGSTCLKEYWNKPEATAKSITAEGWFRTGDIGVIDEEGFLQLKGRSKEIIIRGGENISCVVVENAVYNHDDINEVAAIPVPHPTLGEEVGIAVFSQSGARPSLQSIRDVCGNLARYEMPTHIYYWPEQLPRGDTGKIHKRTILADIKAGKVKDEAVPASKL	increased DHA production	–
ScACS-8: Schizochytrium acyl-CoA synthetase, SEQ ID NO:96/97 (protein, listed as Schizochytrium sp.) MDAEKVIKAGAAAGAAYLGWKYLDEKHGISHDLELARRLLKLKKEINERNTKRVFNVTNMWYEAYAKNPKKPALLYLDEVVTYQDMEDRSNQVANWLLSKGLKRGDTVALLMENRPEFVISWLGMTKIGVKVALINTSIKQKPLLHCLKISGCKIVLFGSELAEPILDIKDELADLGIELAAEGAREASPDWIEVVNPEIEASPKTATSPKLREGIGMQDVFGFIYTSGTTGLPKAAVILHQKMFSFGALMTNAFQCTQDDIVYTCLPLFHSAGGGLGIGIMLYTGATVVIKRKFSVTDFWSDCVKYKCTVVQYIGELCRYLVMAESRPEETQHKVRLAIGNGLRPEIWAEFQERFQIPQIGEFYGATEGNGALVQHCTKPEDRGAVGRMGSLLMRVTGVKFARFDVLEEAPVRGADGFCIECDVDEPGELLFPIRDNDPSSAFAGYNDPKATAKKIITDAFTKGDKYFRTGDLLSRDARGRIYFRDRIGDTFRCKGENVSTSEVAEVLSTYPGIEELNIYGVQIPNNEDGRFPCAALTPKDSDLSNVDLKGFYEHAKKNLPSYSIPMFIRVQPVMPVTATMKHQKVQLRKEGMDIHVIKDPMYWLHDVKKEYDPLTEEDYARIIGQRARL	increased DHA production	–
ScACS-3: Schizochytrium acyl-CoA synthetase, SEQ ID NO:86/87 (protein, listed as Schizochytrium sp.) MGCSGSKPAAPGEVPAVQGYEVTEEVAPGPYDPEKGPYYVSNKAERREIIFAAKGVASEATTPAMTLSKMFRKAAEASKDEVALAVEWPVPEIGADGKIPDSLPLDKWRTWTFGQYYADSHAMARAIVALGAERFDGVTIFGFNSPFWLMAQMAATLSTTLPAGIYPTDTAEQVRYKLRYTDTAVAFCGVEKEFTMLRAAVEDAPDLKAIVCWAHLPMVKTITREDGSKVKVMSWQEALALGEITPPAEVDARIEAQNPGDCAELVFTSGTTGLPKAVMLSHDNLCFAITSIVSTLEDFGRSGPESHLSYLPLSHIAGQEMDVLLPLVVTAFRESHHAVYFVRPYDLKTGTLIDRVKTVQPTAFLGVPRVYEKIMAKMRAKGASVKGLKKKIVQYSKKKGLEYQRNLEVGGSGGKPSNYGFAEKKVLSKVKEALGFTRLKFAISGAAPMSREVQEYFAGIGIAILDVYGASESTGGVTGNSIKAHQFGTVGHTLPGMDVRVFQKAEGGDSSAETGLGELREPARAKDIFHPSEEEQGEVCFRGRSVMLGYMANPKLGEEHVAEVERKNASAIDRHGWYHSGDKGACSKKNMFVITGRYKEIIIGAGGENIAPLPMEDAVKSLAPGVANAIMIGDKRKFNIMLITLRAEGATGEFPGSDNLDPDVRSIGSDSTRTIQKAMADSKWIEHVRDAISKTNANGDACQSNAWKIGRFTILPYDISIVGGELTPTLKLKRNFVDEKYKAVIDHVYAHEGDSKDLTYVPCPIDRVPRKISGDESAAGAASPEANVAEPVTAESGSPSEVTTEAKPANETDDAESKDAAAPLAAKVDTTVPDVAQPQAAS	increased DHA production	–
DAGAT: Schizochytrium diacylglycerol acyltransferase, SEQ ID NO:100/101; gene knocked out in strain B73-8 (protein, listed as Schizochytrium sp.) MERPQAQASPARSEARRRRGDRSKGFADEDGETSVNTPNGMQTPYSTSMGSVSSYSSSGDYAMSEAEGSEVDPADDRMGDSIGSKPSSSSVTGRRRLTQEERDYFLRLEKEWREEDAWADQPGSWYSMLAWMPVLIGLRVFNVLLSIAFWPVSFVARVFFGKKIHTVSFWDVPLSRRKQTAVVLLFVMLLPMVVVVYSWTLVLLLFPLTTFPTLCYMVWIIYVDKSPETGSRRPFLRYWKMWRHFANYFPLRLIRTTPLDSRRKYVFCYHPHGIISLGAFGNFATDSTGFSRKFPGIDLRVLTLALNFYCPLLREFLLYLGLCSAAKKSCNQILQRGPGSAIMLVVGGAAESLDSQPGTYRLTLGRKGFVRVALDNGADLVPVLAFGENDVFDTVYLPPNSWARNVQEFVRKKLGFATPIFSGRGIFQYNMGLMPHRRPIIVVVGKPIKMPKIPDELKGRALSTTAEGVALVDKYHEKYVKALRELWNLYKERWAVHRQGSLLIQK	–	reduction in TAG (Schizochytrium): ~90%; reduction in mg FAME/gm biomass (Schizochytrium): ~80%
